These results are taken from PMC7511342, “Polyol and sugar osmolytes can shorten protein hydrogen bonds to modulate function” (Communications Biology, 2020).

The target of this assay is T1, PDZ3 (the third PDZ domain of the neuronal signaling protein PSD-95/SAP90, residue 303-395) (UniProt P31016 303-395).
T1 construct: third PDZ domain of PSD-95/SAP90, residues 303-395; 15N-labelled for the NMR titration; also called PDZ3^303-395
The assay can be described thus: NMR titration; 2D 1H-15N HSQC of 15N-labelled PDZ3 303-395 (20 uM) titrated with CRIPT peptide 0-100 uM; 308 K; 20 mM sodium phosphate, 50 mM NaCl, pH 7.0; no osmolyte; single-site fit of 12 backbone amides, averaged. The settings on record: both partners purified.

The Kd is the equilibrium constant for the complex coming apart. Lower therefore signals a tighter complex.

T1 sequence (P31016 303-395): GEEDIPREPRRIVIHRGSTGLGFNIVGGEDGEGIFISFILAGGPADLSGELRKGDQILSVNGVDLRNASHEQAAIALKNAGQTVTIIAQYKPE

B1: C-terminal peptide from CRIPT (Ac-TKNYKQTSV-COOH) (peptide)
peptide: Ac-TKNYKQTSV-OH
notes: C-terminal nine residues of CRIPT; also called CRIPT peptide; source: synthetic peptide (APeptide Co. Ltd, Shanghai, China)
B1 came in with a Kd of around 13 µM.
